From patent publication US20170081417A1 (Kyowa Kirin, published 2017)
No end group written: not given here.

Key:
[1] = target: T1, human OX40 (CD134), full length, expressed on cells (activated human T cells); EL4-OX40 and CHO-OX40 … (human, UniProt P43489 29-277); assay: cell-based or functional assay
T1 sequence: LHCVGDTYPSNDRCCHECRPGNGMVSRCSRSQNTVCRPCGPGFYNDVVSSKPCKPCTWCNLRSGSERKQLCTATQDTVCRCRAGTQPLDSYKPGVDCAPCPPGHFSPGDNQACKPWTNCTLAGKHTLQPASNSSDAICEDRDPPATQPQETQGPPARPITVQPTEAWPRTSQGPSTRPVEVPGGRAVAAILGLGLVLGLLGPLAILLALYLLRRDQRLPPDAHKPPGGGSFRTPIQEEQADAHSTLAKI

[2] = target: T2, human OX40 extracellular domain fused to the Fc portion of human IgG1 (hOX40:hFc) (human); assay: ELISA, OX40L-FLAG binding to coated hOX40:hFc, anti-FLAG-HRP
T2 construct: Made in Tn5 insect cells; also called OX40-hIgG1; human OX40:hIgG1 fusion protein
Method: (§1) The ability of 112F32, 112V8, 112Y131, 112Y55, and 112Z5 to block soluble hOX40L binding to coated hOX40:hFc fusion protein was tested using an ELISA protocol (FIG. 5A, Table 3). The plates were coated with hOX40:hFc and after blocking non-specific sites the anti-OX40 antibodies were allowed to bind. Without washing OX40L-FLAG was added to the wells. Bound ligand was detected with anti-FLAG-HRP secondary antibody. Percent inhibition was determined using the following formula (100−(OD sample/OD maximum OX40L binding))*100. 112V8, 112Y55, and 112Y131 prevented 85% of the binding of soluble OX40L to hOX40:hFc. 112F32 prevented approximately 70% of the binding of soluble hOX40L to hOX40:hFc and 112Z5 blocked 67% of the maximal binding.

[3] = target: T2, human OX40 extracellular domain fused …; assay: ELISA, blocking of OX40L-FLAG binding to coated hOX40:hFc
Method: as §1

[4] = target: T1, human OX40 (CD134), full length, …; assay: flow cytometry titration on activated human T cells, anti-human IgG-PE
Method: (§2) Following twenty minute incubation on ice, the cells were washed once and fixed ten minutes with 1% paraformaldehyde. After a final wash the cells were resuspended in staining buffer and the samples were acquired using FACScan or FACS Calibur flow cytometers (Becton Dickinson Biosciences, Palo Alto, Calif.), and the data were analyzed using Cellquest (Becton Dickinson Biosciences) or Flow Jo (TreeStar, Inc., San Carlos, Calif.) software. The activated T cells were also stained with mouse anti-human OX40 antibody L106 (Becton Dickinson), which was directly conjugated to phycoerythrin or whose binding was detected with anti-mouse IgG-PE (Southern Biotechnology Associates.) OX40L Blocking Assays: To determine if the anti-human OX40 antibodies could block OX40L binding to soluble OX40 both ELISA and flow cytometric protocols were used. In the ELISA 96 well Nunc flat bottom plates were coated with recombinant soluble hOX40:hFc at 2 μg/ml in carbonate buffer (pH9.4) for one hour at 37° C. The plates were washed with PBS/0.1% Tween 20 and Superblock (Pierce) was added to the wells to block non-specific binding. The test antibodies were diluted to 1 μg/ml in PBS/Tween and added to the plates. After one hour incubation at 37° C., FLAG tagged recombinant soluble human OX40L (Alexis Biochemicals, San Diego, Calif.) was added to the appropriate wells without washing out the anti-OX40 antibodies. Following one hour incubation, the plates were washed and an anti-FLAG-peroxidase conjugated antibody (Sigma) was added to the wells for one hour at 37° C. The TMB substrate was added, after ten minutes the reaction was stopped with H₂SO₄, and the results were read at 450 nm using a microplate reader. In the flow cytometric assay, human CD4+ T cells were purified and activated with PHA+IL2 for two days. The cells were washed and resuspended in staining buffer and then incubated with increasing amounts of human anti-human OX40 antibodies for twenty minutes on ice, from 0.005-50 μg/ml. Soluble recombinant OX40L-FLAG was then added to the cells. The cells were washed and incubated with anti-FLAG conjugated to PE (Sigma). After another wash, the cells were fixed with 1% paraformaldehyde and analyzed on a FACScan or FACScalibur.

[5] = target: T1, human OX40 (CD134), full length, …; assay: flow cytometry, blocking of OX40L-FLAG binding to activated human T cells
Text: as §2, with “The” for “Following twenty minute incubation on ice, the cells were washed once and fixed ten minutes with 1% paraformaldehyde. After a final wash the cells were resuspended in staining buffer and the samples were acquired using FACScan or FACS Calibur flow cytometers (Becton Dickinson Biosciences, Palo Alto, Calif.), and the data were analyzed using Cellquest (Becton Dickinson Biosciences) or Flow Jo (TreeStar, Inc., San Carlos, Calif.) software. The”
(§3) Slightly different results were obtained when a flow cytometric based assay was used to monitor blockade of soluble OX40L binding to activated human T cells that express OX40 (FIG. 5B). Activated human T cells were labeled with anti-OX40 antibodies followed by soluble flag tagged-human OX40L. Binding of OX40L was detected with anti-FLAG-PE antibody. Percent inhibition was determined using the same formula, i.e., (100−(sample/maximum binding))*100.

[6] = target: T3, human OX40 peptide 112A (human, also: conjugated to KLH via maleimide linker); assay: ELISA on coated KLH-conjugated peptide
T3 peptide: RPAGPGFYNDVVSSKPC
Method: (§4) Antibody titers, specificity, and production by hybridomas were determined by ELISA. In brief, 96 well flat bottom plates were coated with 50 μl of hOX40:hFc at 5 μg/ml in carbonate buffer (pH 9.4) overnight at 4° C. or at 37° C. for one hour. After washing twice with PBS/0.1% Tween 20, plates were blocked with PBS/1% BSA/0.1% Tween20 at 37° C. for one hour. The serum, supernatant, or purified antibody was diluted in blocking buffer, added to the wells, and the plates were incubated for one hour at 37° C. The plates were washed four times with PBS/0.1% Tween 20 and the peroxidase conjugated sheep anti-human kappa detection antibody (The Binding Site, Birmigham, UK) was added at a dilution of 1:2000. Following one hour incubation at 37° C., the plates were washed and the TMB (Sigma) substrate was added and incubated at room temperature for ten to thirty minutes. The reaction was stopped with H₂SO₄ (LabChem) and the optical density was measured at 450 nm by a microplate reader.
(§5) The peptides were generated by A & A Lab, LLC and conjugated to keyhole limpet hemocyanin (“KLH”) with a maleimide linker following the manufacturer's instructions (Pierce). The peptides were coated at 10 μg/ml in carbonate buffer to 96 well Maxisorp ELISA plates (Nunc) at 4° C. overnight. The plate was washed with PBS/0.1% Tween 20 and then blocked with Casein buffer (Pierce) for three hours at room temperature. Candidate antibodies were added at 10 μg/ml diluted in 10% Casein in PBS/0.1% Tween 20. The remainder of the ELISA was performed as described for the OX40 specific antibody detection ELISA.

[7] = target: T4, human OX40 peptide 112B (human, also: conjugated to KLH via maleimide linker); assay: ELISA on coated KLH-conjugated peptide
T4 peptide: RAGTQPLDSYKPGVDC
Method: as §4, §5

[8] = target: T5, human OX40 peptide 112C (human, also: conjugated to KLH via maleimide linker); assay: ELISA on coated KLH-conjugated peptide
T5 peptide: LAGKHTLQPASNSSDAIC
Method: as §4, §5

[9] = target: T1, human OX40 (CD134), full length, …; assay: flow cytometry, blocking of OX40L-FLAG binding to activated human T cells; footnote: not inhibitory at 50 µg/ml
Text: The activated T cells were also stained with mouse anti-human OX40 antibody L106 (Becton Dickinson), which was directly conjugated to phycoerythrin or whose binding was detected with anti-mouse IgG-PE (Southern Biotechnology Associates.) OX40L Blocking Assays: To determine if the anti-human OX40 antibodies could block OX40L binding to soluble OX40 both ELISA and flow cytometric protocols were used. In the ELISA 96 well Nunc flat bottom plates were coated with recombinant soluble hOX40:hFc at 2 μg/ml in carbonate buffer (pH9.4) for one hour at 37° C. The plates were washed with PBS/0.1% Tween 20 and Superblock (Pierce) was added to the wells to block non-specific binding. The test antibodies were diluted to 1 μg/ml in PBS/Tween and added to the plates. […] The TMB substrate was added, after ten minutes the reaction was stopped with H₂SO₄, and the results were read at 450 nm using a microplate reader. […] After another wash, the cells were fixed with 1% paraformaldehyde and analyzed on a FACScan or FACScalibur.
as §3, with “Activated human T cells were labeled with anti-OX40 antibodies followed by soluble flag tagged-human OX40L.” left out

B1: recombinant 112F32G1 antibody (112F32 variable regions in human IgG1) (antibody, V domains shown)
VH: GVQLVESGGGLVQPGGSLRLSCAASGFTFSSYSMNWVRQAPGKGLEWVSYISSSSSTIYYADSVKGRFTISRDNAKNSLYLQMNSLRDEDTAVYYCARGVYHNGWSFFDYWGQGTLLTVSS
VL: DIQMTQSPSSLSASVGNRVTITCRASQDISSWLAWYQQKPEKAPKSLIYAASSLQSGVPSRFSGSGSGTDFTLTISSLQPEDFATYYCQQYNSYPLTFGQGTRLEIKR
B1 was tested, and the “ADCC % Lysis at 10 µg/ml” value [1] was 37%.

B2: recombinant 112V8G1 antibody (112V8 variable regions in human IgG1) (antibody, V domains shown)
VH: QITLKESGPTLVKPKQTLTLTCTFSGFSLSTSGMGVGWIRQPPGKALEWLAVIYWDDHQLYSPSLKSRLTITKDTSKNQVVLTMTNMDPVDTATYYCAHRRGAFQHWGQGTLVTVSS
VL: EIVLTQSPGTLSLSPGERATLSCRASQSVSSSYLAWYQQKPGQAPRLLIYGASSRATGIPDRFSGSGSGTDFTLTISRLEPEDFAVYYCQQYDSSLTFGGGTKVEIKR
B2 was tested, and the “ADCC % Lysis at 10 µg/ml” value [1] was 55.6%.

B3: recombinant 112V8 IgG4PE antibody (112V8G4PE) (antibody, V domains shown)
VH: B2 VH
VL: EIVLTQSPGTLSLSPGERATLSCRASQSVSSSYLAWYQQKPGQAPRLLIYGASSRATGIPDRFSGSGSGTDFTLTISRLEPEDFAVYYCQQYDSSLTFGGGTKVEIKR
With B3 the “ADCC % Lysis at 10 µg/ml” value [1] was 18%.

B4: 112Z5 human anti-human OX40 monoclonal antibody (hybridoma ATCC No. PTA-7216) (antibody, V domains shown)
VH: VVSTQSTGGGLVQPGRSLRLSCAASGFTLDDYGMHWVRQAPGKGLEWVSGISWNSDSIGYVDSVKGRFTISRDNAKNSLYLQMNSLRVEDTALYYCVKDISGWYSFDYWGQGTLVTVSS
VL: EIVLTQSPATLSLSPGERATLSCRASQSVSSYLAWYQQKPGQAPRLLIYDASNRATGIPARFSGSGSGTDFTLTISSLEPEDFAVYYCQQRSNWPITFGQGTRLEIK
B4 was tested, and the “ADCC % Lysis at 10 µg/ml” value [1] was 35%, the “percent inhibition of OX40L binding” value [2] was 67% and the IC50 [3] was 0.081 µg/mL. The “BMAX Geo Mean” value [4] was 118 geometric mean fluorescence, the Kd [4] was 11 nM and the IC50 [5] was 14.7 µg/mL.

B5: 112F32 human anti-human OX40 monoclonal antibody (hybridoma ATCC No. PTA-7217) (antibody, V domains shown)
VH: B1 VH
VL: B1 VL
B5: no binding (tested: 10 µg/ml) [6]; no binding (tested: 10 µg/ml) [7]; no binding (tested: 10 µg/ml) [8]. For the same binder, the “percent inhibition of OX40L binding” value [2] was roughly 70%, the IC50 [3] was 0.65 µg/mL and the “BMAX Geo Mean” value [4] was 104 geometric mean fluorescence. It also gave a Kd [4] of 13 nM and an IC50 [9] greater than 50 µg/mL.

B6: 112V8 human anti-human OX40 monoclonal antibody (hybridoma ATCC No. PTA-7219) (antibody, IgG4, V domains shown)
VH: B2 VH
VL: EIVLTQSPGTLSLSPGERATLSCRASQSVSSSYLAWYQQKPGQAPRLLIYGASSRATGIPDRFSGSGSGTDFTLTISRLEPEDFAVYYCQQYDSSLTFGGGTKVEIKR
B6: no binding (tested: 10 µg/ml) [6]; no binding (tested: 10 µg/ml) [7]; no binding (tested: 10 µg/ml) [8]. For the same binder, the “percent inhibition of OX40L binding” value [2] was 85%, the IC50 [3] was 0.051 µg/mL and the “BMAX Geo Mean” value [4] was 181 geometric mean fluorescence. It also gave a Kd [4] of 36 nM and an IC50 [5] of 0.62 µg/mL.
